Assay results: patent JP2010011840A (dated 2010)

T1: CDR1抗原ペプチド(RSSKSLLYSNGNTYLY)
T1 peptide: RSSKSLLYSNGNTYLY

B1: i41SL1-2抗体の重鎖(i41SL1-2-H) (other, not shown: a dimerising Fc or GST)
heavy: QVQLQHSGAELVRPGSSVKVSCKALGYTSTDYEIHWVKQTPVRGLEWIGAIHPGSDVIVYNQKFKGTATLTADKSSSTAYMELRSLTSEDSAVYYCTREGGSVDYVWGQGTLVTVSA
modifications: reduced with 0.2 M β-mercaptoethanol and alkylated with 0.3 M iodoacetamide (positions not stated)
B2: i41SL1-2抗体の軽鎖(i41SL1-2-L) (other, not shown: a dimerising Fc or GST)
light: DIVMTQTQLTLTINIGQPASISCKSSQSLLDSDGKTYLNWLFQRPGQSPKRLIYLVSKLDSGVPDRFTGSGSGTDFTLKISRVEAEDLGVYYCWQGTHFPLTFGAGTKLELRRA
modifications: reduced with 0.2 M β-mercaptoethanol and alkylated with 0.3 M iodoacetamide (positions not stated)

Target: T1, CDR1抗原ペプチド(RSSKSLLYSNGNTYLY)
Assay: cell-based or functional assay

| Binder | 回転数(kcat) | 触媒効率(kcat/Km) |
| --- | --- | --- |
| B1 | ~0.005 ratio to trypsin | ~0.1 ratio to trypsin |
| B2 | ~0.005 ratio to trypsin | – |
